In IntAct's records for PubMed 15292222:

B1: Protein phosphatase 1 regulatory subunit 12A (Homo sapiens), O14974 (parent)
chain: MKMADAKQKRNEQLKRWIGSETDLEPPVVKRQKTKVKFDDGAVFLAACSSGDTDEVLKLLHRGADINYANVDGLTALHQACIDDNVDMVKFLVENGANINQPDNEGWIPLHAAASCGYLDIAEFLIGQGAHVGAVNSEGDTPLDIAEEEAMEELLQNEVNRQGVDIEAARKEEERIMLRDARQWLNSGHINDVRHAKSGGTALHVAAAKGYTEVLKLLIQAGYDVNIKDYDGWTPLHAAAHWGKEEACRILVDNLCDMEMVNKVGQTAFDVADEDILGYLEELQKKQNLLHSEKRDKKSPLIESTANMDNNQSQKTFKNKETLIIEPEKNASRIESLEQEKVDEEEEGKKDESSCSSEEDEEDDSESEAETDKTKPLASVTNANTSSTQAAPVAVTTPTVSSGQATPTSPIKKFPTTATKISPKEEERKDESPATWRLGLRKTGSYGALAEITASKEGQKEKDTAGVTRSASSPRLSSSLDNKEKEKDSKGTRLAYVAPTIPRRLASTSDIEEKENRDSSSLRTSSSYTRRKWEDDLKKNSSVNEGSTYHKSCSFGRRQDDLISSSVPSTTSTPTVTSAAGLQKSLLSSTSTTTKITTGSSSAGTQSSTSNRLWAEDSTEKEKDSVPTAVTIPVAPTVVNAAASTTTLTTTTAGTVSSTTEVRERRRSYLTPVRDEESESQRKARSRQARQSRRSTQGVTLTDLQEAEKTIGRSRSTRTREQENEEKEKEEKEKQDKEKQEEKKESETSREDEYKQKYSRTYDETYQRYRPVSTSSSTTPSSSLSTMSSSLYASSQLNRPNSLVGITSAYSRGITKENEREGEKREEEKEGEDKSQPKSIRERRRPREKRRSTGVSFWTQDSDENEQEQQSDTEEGSNKKETQTDSISRYETSSTSAGDRYDSLLGRSGSYSYLEERKPYSSRLEKDDSTDFKKLYEQILAENEKLKAQLHDTNMELTDLKLQLEKATQRQERFADRSLLEMEKRERRALERRISEMEEELKMLPDLKADNQRLKDENGALIRVISKLSK

Variants of: B1
Conditions: with dapk3_human DAPK3, O43293
Chain of dapk3_human DAPK3, O43293 (O43293 whole entry, looked up): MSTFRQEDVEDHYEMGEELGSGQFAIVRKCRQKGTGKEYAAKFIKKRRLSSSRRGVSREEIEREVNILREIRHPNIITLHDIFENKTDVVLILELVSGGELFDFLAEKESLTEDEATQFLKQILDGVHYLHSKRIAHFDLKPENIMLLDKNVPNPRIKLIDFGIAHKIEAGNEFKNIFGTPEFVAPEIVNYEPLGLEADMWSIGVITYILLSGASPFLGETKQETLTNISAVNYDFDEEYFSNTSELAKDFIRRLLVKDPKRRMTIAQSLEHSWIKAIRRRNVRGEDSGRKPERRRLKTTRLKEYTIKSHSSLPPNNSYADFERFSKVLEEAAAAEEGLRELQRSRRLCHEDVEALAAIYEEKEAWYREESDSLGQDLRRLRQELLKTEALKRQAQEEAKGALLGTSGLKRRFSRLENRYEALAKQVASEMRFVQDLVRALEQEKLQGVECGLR
For L1007A;L1014A;L1021A;L1028A, the “effect of a mutation on the interaction” value was “disrupting interaction”.
